Reference: US12116636B2, “Methods for evaluating tumor cell spheroids using 3D microfluidic cell culture device” (Dana-Farber Cancer Institute, Inc., priority 2017, dated 2024)

Tested on: MC38 MDOTS
Test: RNA-seq of MDOTS after ex vivo treatment
Assay type: cell-based, murine
Conditions: Day 6
Text: RNA is collected from a subset of the MDOTs within the device after the supernatants have been collected and cDNA libraries for RNA sequencing is generated to evaluate global transcriptome changes associated with treatment regimen on single samples per drug treatment. These types of data may be generated from a variety of clinical specimens. The RNA Advance tissue RNA isolation method (Beckman Coulter) is utilized, which is a bead wash based separation technique, which facilitates elution volumes amenable to sample input for RNA-Seq library preparation. Automated library preparation can be performed using as little as 10 ng of good quality RNA. The RNA Access method from Illumina is utilized, which enriches for the coding region of the genome. Libraries are sequenced on the NextSeq500 platform, as 75 bp Single End to generate approximately 20 million reads per sample. With appropriate adaptors, 24 samples are multiplexed on each NextSeq500 run. The concentration [ng/ul], yield [ng] and quality of RNA (high RIN #by bioanalyzer) derived from the MDOTS are more than sufficient to ensure good quality libraries for subsequent sequencing (FIG. 15).
The STAR RNA sequencing alignment tool (Spliced Transcripts Alignment to a Reference) [STAR_2.5.0a]) is utilized to align the data to the genome (RefSeq gene annotations). […]

B1: IFNγ: interferon gamma used as MC38 MDOTS treatment in RNA-seq (protein, UniProt P01580 23-155, looked up)
Interferon gamma: HGTVIESLESLNNYFNSSGIDVEEKSLFLDIWRNWQKDGDMKILQSQIISFYLRLFEVLKDNQAISNNISVIESHLITTFFSNSKAKKDAFMSIAKFEVNNPQVQRQAFNELIRVVHQLLPESSLRKRKRSRC
  expression of IFNγ genes incl. CXCL10, CXCL11, PD-L1, IDO1, IDO2 (RNA-seq) in MC38 MDOTS: induced
